In patent US20070238141:

Target: GST-poly (Glu,Tyr) fused protein
Sequence (chain, as listed by the source): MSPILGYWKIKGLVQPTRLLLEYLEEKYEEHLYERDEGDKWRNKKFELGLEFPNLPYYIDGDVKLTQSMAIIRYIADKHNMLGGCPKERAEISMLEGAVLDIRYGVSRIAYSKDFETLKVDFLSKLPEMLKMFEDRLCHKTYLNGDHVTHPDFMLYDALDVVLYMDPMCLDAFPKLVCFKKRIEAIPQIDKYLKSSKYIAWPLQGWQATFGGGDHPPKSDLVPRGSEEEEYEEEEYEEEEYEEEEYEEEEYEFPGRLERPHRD

Protein | band of phosphorylated GST-poly (Glu,Tyr) fused protein in Western blotting with anti-phosphotyrosine antibody
ErbB4 Kinase (intracellular domain, Cell Signaling Technology) (protein) RRKSIKKKRALRRFLETELVEPLTPSGTAPNQAQLRILKETELKRVKVLGSGAFGTVYKGIWVPEGETVKIPVAIKILNETTGPKANVEFMDEALIMASMDHPHLVRLLGVCLSPTIQLVTQLMPHGCLLEYVHEHKDNIGSQLLLNWCVQIAKGMMYLEERRLVHRDLAARNVLVKSPNHVKITDFGLARLLEGDEKEYNADGGKMPIKWMALECIHYRKFTHQSDVWSYGVTIWELMTFGGKPYDGIPTREIPDLLEKGERLPQPPICTIDVYMVMVKCWMIDADSRPKFKELAAEFSRMARDPQRYLVIQGDDRMKLPSPNDSKFFQNLLDEEDLEDMMDAEEYLVPQAFNIPPPIYTSRARIDSNRSEIGHSPPPAYTPMSGNQFVYRDGGFAAEQGVSVPYRAPTSTIPEAPVAQGATAEIFDDSCCNGTLRKPVAPHVQEDSSTQRYSADPTVFAPERSPRGELDEEGYMTPMRDKPKQEYLNPVEENPFVSRRKNGDLQALDNPEYHNASNGPPKAEDEYVNEPLYLNTFANTLGKAEYLKNNILSMPEKAKKAFDNPDYWNHSLPPRSTLQHPDYLQEYSTKYFYKQNGRIRPIVAENPEYLSEFSLKPGTVLPPPPYRHRNTVV | In “+” of “i” to “vii”, a single band was seen at positions where a phosphorylated GST-poly (Glu,Tyr) fused protein appears
IGF-1 Receptor Kinase (intracellular domain, Cell Signaling Technology) (protein) RKRNNSRLGNGVLYASVNPEYFSAADVYVPDEWEVAREKITMSRELGQGSFGMVYEGVAKGVVKDEPETRVAIKTVNEAASMRERIEFLNEASVMKEFNCHHVVRLLGVVSQGQPTLVIMELMTRGDLKSYLRSLRPEMENNPVLAPPSLSKMIQMAGEIADGMAYLNANKFVHRDLAARNCMVAEDFTVKIGDFGMTRDIYETDYYRKGGKGLLPVRWMSPESLKDGVFTTYSDVWSFGVVLWEIATLAEQPYQGLSNEQVLRFVMEGGLLDKPDNCPDMLFELMRMCWQYNPKMRPSFLEIISSIKEEMEPGFREVSFYYSEENKLPEPEELDLEPENMESVPLDPSASSSSLPLPDRHSGHKAENGPGPGVLVLRASFDERQPYAHMNGGRKNERALPLPQSSTC | In “+” of “i” to “vii”, a single band was seen at positions where a phosphorylated GST-poly (Glu,Tyr) fused protein appears
VEGF Receptor 1 Kinase (intracellular domain, Cell Signaling Technology) (protein) RKMKRSSSEIKTDYLSIIMDPDEVPLDEQCERLPYDASKWEFARERLKLGKSLGRGAFGKVVQASAFGIKKSPTCRTVAVKMLKEGATASEYKALMTELKILTHIGHHLNVVNLLGACTKQGGPLMVIVEYCKYGNLSNYLKSKRDLFFLNKDAALHMEPKKEKMEPGLEQGKKPRLDSVTSSESFASSGFQEDKSLSDVEEEEDSDGFYKEPITMEDLISYSFQVARGMEFLSSRKCIHRDLAARNILLSENNVVKICDFGLARDIYKNPDYVRKGDTRLPLKWMAPESIFDKIYSTKSDVWSYGVLLWEIFSLGGSPYPGVQMDEDFCSRLREGMRMRAPEYSTPEIYQIMLDCWHRDPKERPRFAELVEKLGDLLQANVQQDGKDYIPINAILTGNSGFTYSTPAFSEDFFKESISAPKFNSGSSDDVRYVNAFKFMSLERIKTFEELLPNATSMFDDYQGDSSTLLASPMLKRFTWTDSKPKASLKIDLRVTSKSKESGLSDVSRPSFCHSSCGHVSEGKRRFTYDHAELERKIACCSPPPDYNSVVLYSTPPI | In “+” of “i” to “vii”, a single band was seen at positions where a phosphorylated GST-poly (Glu,Tyr) fused protein appears
PDGF Receptor β Kinase (intracellular domain, Cell Signaling Technology) (protein) RYEIRWKVIESVSSDGHEYIYVDPMQLPYDSTWELPRDQLVLGRTLGSGAFGQVVEATAHGLSHSQATMKVAVKMLKSTARSSEKQALMSELKIMSHLGPHLNVVNLLGACTKGGPIYIITEYCRYGDLVDYLHRNKHTFLQHHSDKRRPPSAELYSNALPVGLPLPSHVSLTGESDGGYMDMSKDESVDYVPMLDMKGDVKYADIESSNYMAPYDNYVPSAPERTCRATLINESPVLSYMDLVGFSYQVANGMEFLASKNCVHRDLAARNVLICEGKLVKICDFGLARDIMRDSNYISKGSTFLPLKWMAPESIFNSLYTTLSDVWSFGILLWEIFTLGGTPYPELPMNEQFYNAIKRGYRMAQPAHASDEIYEIMQKCWEEKFEIRPPFSQLVLLLERLLGEGYKKKYQQVDEEFLRSDHPAILRSQARLPGFHGLRSPLDTSSVLYTAVQPNEGDNDYIIPLPDPKPEVADEGPLEGSPSLASSTLNEVNTSSTISCDSPLEPQDEPEPEPQLELQVEPEPELEQLPDSGCPAPRAEAEDSFL | In “+” of “i” to “vii”, a single band was seen at positions where a phosphorylated GST-poly (Glu,Tyr) fused protein appears
